Measurements taken from article PMC9844003.

Tests used:
[1] = biological target: extracellular domain of CD47 fused to a His(×6)-Avi-tag (human); assay: ELISA; pH 6.2
[2] = biological target: extracellular domain of CD47 fused to a His(×6)-Avi-tag (human); assay: ELISA; pH 6.4
[3] = biological target: extracellular domain of CD47 fused to a His(×6)-Avi-tag (human); assay: ELISA; pH 6.6
[4] = biological target: extracellular domain of CD47 fused to a His(×6)-Avi-tag (human); assay: ELISA; pH 6.8
[5] = biological target: extracellular domain of CD47 fused to a His(×6)-Avi-tag (human); assay: ELISA; pH 7.0
[6] = biological target: extracellular domain of CD47 fused to a His(×6)-Avi-tag (human); assay: ELISA; pH 7.2
[7] = biological target: extracellular domain of CD47 fused to a His(×6)-Avi-tag (human); assay: ELISA; pH 7.4
[8] = biological target: extracellular domain of CD47 fused to a His(×6)-Avi-tag (human); assay: ELISA; pH 7.6

extracellular domain of CD47 fused to a His(×6)-Avi-tag (human), sequence (Q08722 19-141): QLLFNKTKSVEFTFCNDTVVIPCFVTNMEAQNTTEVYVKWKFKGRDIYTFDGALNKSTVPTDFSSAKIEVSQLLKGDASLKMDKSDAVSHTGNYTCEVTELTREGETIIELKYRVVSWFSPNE

Q: Which results are given for Hu5F9?
A: EC50 [1]: 0.04 nM; EC50 [2]: 0.04 nM; EC50 [3]: 0.04 nM; EC50 [4]: 0.03 nM; EC50 [5]: 0.04 nM; EC50 [6]: 0.03 nM; EC50 [7]: 0.04 nM; EC50 [8]: 0.04 nM
